Measured values published in patent US20030082156A1 (priority 1999, published 2003).
Read-outs that look alike come from different tables or passages of the source.

Assays:
[1] = tested on: N15 TCRs on immature thymocytes; format: cell-based, mouse
[2] = tested on: DP thymocytes of N15 tg Rag-2−/− H-2b mice; details: mouse, in vivo
N15 TCR = format: binding, mouse; details: read-out: monomeric affinity of the N15 TCR for peptide/K^b
[3] = target: CA/I-A^k: hen egg conalbumin peptide (residues 134-146) fused by a flexible linker to the N-terminus of the I-A^k β chain, with the I-A^k α chain; leucine zippers cleaved off by thrombin (hen; mouse) (UniProt P02789); test: method not stated; cited as refs. 5, 26 ('Our unpublished results')
[4] = target: Tax (peptide residues not given) peptide on HLA-A2 (human)
[5] = target: vesicular stomatitis virus nuclear protein (VSV8) peptide on H-2Kb (mouse); test: full-length, on cells
[6] = target: vesicular stomatitis virus nuclear protein (VSV8) peptide on H-2Kb (mouse)
[7] = target: vesicular stomatitis virus nuclear protein (VSV8) peptide on H-2Kb (mouse); remark: listed apart in the source
[8] = target: VSV8 octapeptide (RGYVYQGL) bound to K^b on presenting cells (vesicular stomatitis virus; mouse) (UniProt P01887); test: cell-based or functional assay
[9] = target: hen egg conalbumin (CA) peptide on I-Ak (mouse); test: single-chain
[10] = target: VSV8/K^b (as in the statement of the monomeric affinity; construct not described) (vesicular stomatitis virus; mouse) (UniProt P01901); test: method not stated; BIAcore implied by the sentence
[11] = target: dEV8 (peptide name as printed; residues not given) peptide on H-2Kb (mouse)
[12] = target: dEV8 (peptide name as printed; residues not given) peptide on H-2Kb (mouse); remark: listed apart in the source
[13] = target: Tax (peptide residues not given) peptide on HLA-A2 (human); remark: listed apart in the source

UniProt P01901, sequence (P01901 22-305): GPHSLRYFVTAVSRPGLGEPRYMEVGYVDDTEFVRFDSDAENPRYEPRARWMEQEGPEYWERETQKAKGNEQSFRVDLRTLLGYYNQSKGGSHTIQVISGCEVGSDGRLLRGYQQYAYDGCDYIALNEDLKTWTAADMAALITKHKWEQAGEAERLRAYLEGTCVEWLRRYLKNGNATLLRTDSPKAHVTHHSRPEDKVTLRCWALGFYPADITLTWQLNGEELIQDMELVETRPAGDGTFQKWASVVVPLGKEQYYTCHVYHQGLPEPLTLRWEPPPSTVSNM

## RGYVYQGL [VSV8]
[1]
  fraction of DP thymocytes dulled: ~5%
  thymocytes falling in the expected CD4/CD8 expression range of DP thymocytes: 10-26%
[2]
  surviving thymocytes that were DP: < 10%
[2]; iv
  % of DP thymocytes: 14%
N15 TCR
  Kd: > 200 µM

## scD10 TCR (single chain V module of the D10 TCR: Vβ8.2-linker-Vα2, 237 residues, Cys235Ser)
[3]
  Kd: 1 to 2 µM

## B7 TCR
[4]
  orientation angle of the TCR on the pMHC: 70 °

## N15 TCR
[5]
  % CD8 SP thymocytes after 7 days of FTOC: 1%
  % DP thymocytes 24 h after injection: 14%
[6]
  Kd: > 200 µM
[7]
  orientation angle of the TCR on the pMHC: 54 °

## N15 TCR (on thymocytes and splenic T cells of N15 TCR transgenic mice)
[8]
  DP thymocyte dulling assay: fraction of DP thymocytes dulled: 5%

## D10 TCR
[9]
  orientation angle of the TCR on the pMHC: 80 °

## N15 TCR (as in the statement of its monomeric affinity; construct not described)
[10]
  Kd: > 200 µM

## 2C TCR
[11]
  orientation angle of the TCR on the pMHC: 45 °
[12]
  Kd: 100 µM

## A6 TCR
[13]
  orientation angle of the TCR on the pMHC: 56 °
